Data: patent publication US20250320281A1

Experiments:
[1] = molecular target: WT JR-FL gp120 (HIV-1); test: ELISA, antigen-coated wells
[2] = molecular target: HIV-1 Env of isolate MGRM-C-012 (HIV-1); test: cell-based or functional assay
[3] = molecular target: HIV-1 92UG024 Env (pseudovirus) (HIV-1); test: cell-based or functional assay
[4] = molecular target: HIV-1 Env of pseudovirus isolate MGRM-G-004 (HIV-1); test: cell-based or functional assay
[5] = molecular target: HIV-1 Env of pseudovirus isolate MGRM-G-013 (HIV-1); test: cell-based or functional assay
[6] = molecular target: HIV-1 Env of isolate MGRM-C-001 (HIV-1); test: cell-based or functional assay
[7] = molecular target: HIV-1 Env of pseudovirus isolate MGRM-G-006 (HIV-1); test: cell-based or functional assay
[8] = molecular target: HIV-1 Env of pseudovirus isolate MGRM-G-027 (HIV-1); test: cell-based or functional assay
[9] = molecular target: HIV-1 Env of pseudovirus isolate MGRM-G-015 (HIV-1); test: cell-based or functional assay
[10] = molecular target: HIV-1 Env of pseudovirus isolate MGRM-G-017 (HIV-1); test: cell-based or functional assay
[11] = molecular target: envelope of aMLV pseudovirus (negative control); test: cell-based or functional assay
[12] = molecular target: HIV-1 CMU02 Env (pseudovirus) (HIV-1); test: cell-based or functional assay
[13] = molecular target: HIV-1 Env of isolate MGRM-C-005 (HIV-1); test: cell-based or functional assay
[14] = molecular target: HIV-1 Env of pseudovirus isolate MGRM-G-019 (HIV-1); test: cell-based or functional assay
[15] = molecular target: HIV-1 Env of isolate MGRM-C-009 (HIV-1); test: cell-based or functional assay
[16] = molecular target: HIV-1 Env of isolate MGRM-C-023 (HIV-1); test: cell-based or functional assay
[17] = molecular target: HIV-1 Env of isolate MGRM-C-019 (HIV-1); test: cell-based or functional assay
[18] = molecular target: HIV-1 92TH021 Env (pseudovirus) (HIV-1); test: cell-based or functional assay
[19] = molecular target: HIV-1 Env of isolate MGRM-C-025 (HIV-1); test: cell-based or functional assay
[20] = molecular target: HIV-1 Env of pseudovirus isolate MGRM-G-001 (HIV-1); test: cell-based or functional assay
[21] = molecular target: HIV-1 Env of isolate MGRM-C-008 (HIV-1); test: cell-based or functional assay
[22] = molecular target: HIV-1 NL43 Env (pseudovirus) (HIV-1); test: cell-based or functional assay
[23] = molecular target: HIV-1 Env of pseudovirus isolate MGRM-G-009 (HIV-1); test: cell-based or functional assay
[24] = molecular target: HIV-1 Env of pseudovirus isolate MGRM-G-016 (HIV-1); test: cell-based or functional assay
[25] = molecular target: HIV-1 92UG005 Env (pseudovirus) (HIV-1); test: cell-based or functional assay
[26] = molecular target: HIV-1 Env of isolate MGRM-C-002 (HIV-1); test: cell-based or functional assay
[27] = molecular target: HIV-1 Env of isolate MGRM-C-014 (HIV-1); test: cell-based or functional assay
[28] = molecular target: HIV-1 Env of isolate MGRM-C-007 (HIV-1); test: cell-based or functional assay
[29] = molecular target: HIV-1 Env of isolate MGRM-C-022 (HIV-1); test: cell-based or functional assay
[30] = molecular target: HIV-1 Env of isolate MGRM-C-006 (HIV-1); test: cell-based or functional assay
[31] = molecular target: HIV-1 Env of isolate MGRM-C-004 (HIV-1); test: cell-based or functional assay
[32] = molecular target: HIV-1 Env of isolate MGRM-C-024 (HIV-1); test: cell-based or functional assay
[33] = molecular target: HIV-1 Env of isolate MGRM-C-017 (HIV-1); test: cell-based or functional assay
[34] = molecular target: HIV-1 Env of pseudovirus isolate MGRM-G-011 (HIV-1); test: cell-based or functional assay
[35] = molecular target: HIV-1 Env of isolate MGRM-C-013 (HIV-1); test: cell-based or functional assay
[36] = molecular target: HIV-1 Env of pseudovirus isolate MGRM-G-014 (HIV-1); test: cell-based or functional assay
[37] = molecular target: HIV-1 Env of isolate MGRM-C-015 (HIV-1); test: cell-based or functional assay
[38] = molecular target: HIV-1 Env of isolate MGRM-C-010 (HIV-1); test: cell-based or functional assay
[39] = molecular target: HIV-1 Env of isolate MGRM-C-020 (HIV-1); test: cell-based or functional assay
[40] = molecular target: HIV-1 MGRM-C-028 Env (pseudovirus) (HIV-1); test: cell-based or functional assay
[41] = molecular target: HIV-1 94UG103 Env (pseudovirus) (HIV-1); test: cell-based or functional assay
[42] = molecular target: HIV-1 MGRM-D-018 Env (pseudovirus) (HIV-1); test: cell-based or functional assay
[43] = molecular target: HIV-1 93IN905 Env (pseudovirus) (HIV-1); test: cell-based or functional assay
[44] = molecular target: HIV-1 MGRM-C-027 Env (pseudovirus) (HIV-1); test: cell-based or functional assay
[45] = molecular target: HIV-1 JRCSF Env (pseudovirus) (HIV-1) (UniProt P20871); test: cell-based or functional assay
[46] = molecular target: HIV-1 MGRM-A-010 Env (pseudovirus) (HIV-1); test: cell-based or functional assay
[47] = molecular target: HIV-1 92RW020 Env (pseudovirus) (HIV-1); test: cell-based or functional assay
[48] = molecular target: HIV-1 MGRM-C-026 Env (pseudovirus) (HIV-1); test: cell-based or functional assay
[49] = molecular target: HIV-1 APV6 Env (pseudovirus) (HIV-1); test: cell-based or functional assay

## 4838_L06 (PGT-121) (antibody)
[1]
  EC50: 0.2 µg/mL
[2]
  neutralization IC50: 0.123 µg/mL
[3]
  neutralization IC50 (pseudovirus): > 10 µg/mL
[4]
  IC50 (µg/mL), pseudovirus neutralization: 0.115 µg/mL
[5]
  IC50 (µg/mL), pseudovirus neutralization: 3.99 µg/mL
[6]
  neutralization IC50: 17.5 µg/mL
[7]
  IC50 (µg/mL), pseudovirus neutralization: > 50 µg/mL
[8]
  IC50 (µg/mL), pseudovirus neutralization: 0.124 µg/mL
[9]
  IC50 (µg/mL), pseudovirus neutralization: > 50 µg/mL
[10]
  IC50 (µg/mL), pseudovirus neutralization: 0.004 µg/mL
[11]
  IC50 (µg/mL), pseudovirus neutralization: > 50 µg/mL
[12]
  neutralization IC50 (pseudovirus): > 10 µg/mL
[13]
  neutralization IC50: 0.015 µg/mL
[14]
  IC50 (µg/mL), pseudovirus neutralization: 0.011 µg/mL
[15]
  neutralization IC50: > 50 µg/mL
[16]
  neutralization IC50: 0.017 µg/mL
[17]
  neutralization IC50: > 50 µg/mL
[18]
  neutralization IC50 (pseudovirus): > 10 µg/mL
[19]
  neutralization IC50: 46.8 µg/mL
[20]
  IC50 (µg/mL), pseudovirus neutralization: 0.004 µg/mL
[21]
  neutralization IC50: 0.012 µg/mL
[22]
  neutralization IC50 (pseudovirus): > 10 µg/mL
[23]
  IC50 (µg/mL), pseudovirus neutralization: 0.02 µg/mL
[24]
  IC50 (µg/mL), pseudovirus neutralization: > 50 µg/mL
[25]
  neutralization IC50 (pseudovirus): > 10 µg/mL
[26]
  neutralization IC50: 0.019 µg/mL
[27]
  neutralization IC50: 26.9 µg/mL
[28]
  neutralization IC50: 0.196 µg/mL
[29]
  neutralization IC50: 0.015 µg/mL
[30]
  neutralization IC50: 0.017 µg/mL
[31]
  neutralization IC50: 0.011 µg/mL
[32]
  neutralization IC50: 0.052 µg/mL
[33]
  neutralization IC50: 0.009 µg/mL
[34]
  IC50 (µg/mL), pseudovirus neutralization: 3.17 µg/mL
[35]
  neutralization IC50: 7.23 µg/mL
[36]
  IC50 (µg/mL), pseudovirus neutralization: 0.009 µg/mL
[37]
  neutralization IC50: 25.1 µg/mL
[38]
  neutralization IC50: > 50 µg/mL
[39]
  neutralization IC50: > 50 µg/mL

## 4858_P08 (PGT-123) (antibody)
[1]
  EC50: 0.2 µg/mL
[2]
  neutralization IC50: 0.606 µg/mL
[3]
  neutralization IC50 (pseudovirus): > 10 µg/mL
[4]
  IC50 (µg/mL), pseudovirus neutralization: 0.181 µg/mL
[5]
  IC50 (µg/mL), pseudovirus neutralization: 3.97 µg/mL
[6]
  neutralization IC50: 42.4 µg/mL
[7]
  IC50 (µg/mL), pseudovirus neutralization: > 50 µg/mL
[8]
  IC50 (µg/mL), pseudovirus neutralization: 0.182 µg/mL
[9]
  IC50 (µg/mL), pseudovirus neutralization: > 50 µg/mL
[10]
  IC50 (µg/mL), pseudovirus neutralization: 0.026 µg/mL
[40]
  neutralization IC50 (pseudovirus): 0.443 µg/mL
[11]
  IC50 (µg/mL), pseudovirus neutralization: > 50 µg/mL
[41]
  neutralization IC50 (pseudovirus): 0.846 µg/mL
[12]
  neutralization IC50 (pseudovirus): > 10 µg/mL
[13]
  neutralization IC50: 0.012 µg/mL
[14]
  IC50 (µg/mL), pseudovirus neutralization: 0.008 µg/mL
[42]
  neutralization IC50 (pseudovirus): 0.0047 µg/mL
[43]
  neutralization IC50 (pseudovirus): 0.0071 µg/mL
[44]
  neutralization IC50 (pseudovirus): 0.0169 µg/mL
[15]
  neutralization IC50: > 50 µg/mL
[16]
  neutralization IC50: 0.011 µg/mL
[45]
  neutralization IC50 (pseudovirus): 0.0423 µg/mL
[17]
  neutralization IC50: > 50 µg/mL
[18]
  neutralization IC50 (pseudovirus): > 10 µg/mL
[19]
  neutralization IC50: 13.3 µg/mL
[20]
  IC50 (µg/mL), pseudovirus neutralization: 0.009 µg/mL
[21]
  neutralization IC50: 0.011 µg/mL
[22]
  neutralization IC50 (pseudovirus): > 10 µg/mL
[23]
  IC50 (µg/mL), pseudovirus neutralization: 33.5 µg/mL
[24]
  IC50 (µg/mL), pseudovirus neutralization: > 50 µg/mL
[25]
  neutralization IC50 (pseudovirus): 2.49 µg/mL
[26]
  neutralization IC50: 0.01 µg/mL
[46]
  neutralization IC50 (pseudovirus): 0.492 µg/mL
[27]
  neutralization IC50: 1 µg/mL
[47]
  neutralization IC50 (pseudovirus): 0.0038 µg/mL
[48]
  neutralization IC50 (pseudovirus): 0.0031 µg/mL
[28]
  neutralization IC50: 0.547 µg/mL
[29]
  neutralization IC50: 0.01 µg/mL
[30]
  neutralization IC50: 0.021 µg/mL
[31]
  neutralization IC50: 0.009 µg/mL
[32]
  neutralization IC50: 0.195 µg/mL
[33]
  neutralization IC50: 0.01 µg/mL
[34]
  IC50 (µg/mL), pseudovirus neutralization: 14.9 µg/mL
[49]
  neutralization IC50 (pseudovirus): 0.0328 µg/mL
[35]
  neutralization IC50: 14.9 µg/mL
[36]
  IC50 (µg/mL), pseudovirus neutralization: 0.005 µg/mL
[37]
  neutralization IC50: 13.1 µg/mL
[38]
  neutralization IC50: > 50 µg/mL
[39]
  neutralization IC50: > 50 µg/mL
